According to patent US20240409645A1:
Numbering of substitutions follows the chain as printed. One block for each binder: values may come before it.

Tests used:
mouse IL-2Rβ (mouse) [1] = target: T1, mouse IL-2Rβ (mouse) (UniProt P16297); assay: P.E. binding ELISA on coated protein
T1 sequence (looked up): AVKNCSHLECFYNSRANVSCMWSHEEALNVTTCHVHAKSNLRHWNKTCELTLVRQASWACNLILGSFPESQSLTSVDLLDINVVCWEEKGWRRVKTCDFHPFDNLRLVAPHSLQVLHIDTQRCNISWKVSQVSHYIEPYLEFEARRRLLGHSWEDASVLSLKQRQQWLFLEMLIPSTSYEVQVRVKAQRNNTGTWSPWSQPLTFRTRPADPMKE

mouse IL-2Rβ (mouse) [2] = target: T1, mouse IL-2Rβ (mouse); assay: P.E. ELISA, coated protein

B7: FJ1427_P035MP02E12 (VHH)
VHH: QVQLQESGGGLVQAGGSMRLSCAASGRTFSNYVIAWFRQAPGKEREFVGAITQTGRGTFYASSVEGRFTLSRLNDQSTVYLQMNSLNPEDTGVYYCSAPRSGRAGTRNQMDYEYWGQGTQVTVSS
- P.E. binding ELISA OD (mouse IL-2Rβ (mouse) [1]): 0.048 OD450 nm

B8: FJ1427_P035MP02D12 (VHH)
VHH: QVQLVESGGGLVQAGGSLTLSCAASGGAFSSDAKAWFRQAPGKEREFVAAITWAGRGTDYADSVKGRFTITRDNAKATVHLQMNSLKPEDTAVYYCALNPRGVIGPAFRNSNHYTYWGQGTQVTVSS
- P.E. binding ELISA OD (mouse IL-2Rβ (mouse) [1]): 0.046 OD450 nm

B9: FJ1427 P035MP03D02 (VHH)
VHH: QVQLQESGGGLVQTGGSLRLSCAVSGSRFISDVMGWYRQVPGKQRELVADMADGGSAKYADSVKGRFSILRDSVKNTVYLQMSSLKPEDTGIYYCKAGLWLAGRHSDYWGQGTQVTVSS
- P.E. binding ELISA OD (mouse IL-2Rβ (mouse) [1]): 0.048 OD450 nm

B13: FJ1427 P035MP02G02 (VHH)
VHH: QVQLVESGGGLVQPGGSLRLSCAASGSHFISDVMGWYRQVPGKQRELVADMADGGSVKYGDSVKGRFTILRDSVKNTVTLQMSSLNPEDTGVYYCKAGLWITGRHFDYWGQGIQVTVTS
- P.E. binding ELISA OD (mouse IL-2Rβ (mouse) [2]): 0.049 OD450 nm

B15: FJ1427 P035MP03B01 (VHH)
VHH: QVQLVESGGGLVQAGGSLRLSCAASGFTFSNYAMSWVRQAPGKGLEWVSSITGFGRGTDYADSVKGRFTISRDNAKNTLYLQMNSLKPEDTAVYYCARYSSSTYYPPTPARGTDYRGQGTQVTVSS
- P.E. binding ELISA OD (mouse IL-2Rβ (mouse) [1]): 0.05 OD450 nm

B16: FJ1427_P035MP03F02 (VHH)
VHH: B15 VHH with A14P, F54A, D59Y, A75D, R98K, S100D, T113I, D114A, Y115D, T120I
- P.E. binding ELISA OD (mouse IL-2Rβ (mouse) [1]): 0.049 OD450 nm

B20: FJ1427 P035MP03E01 (VHH)
VHH: QVQLVESGGGLVQAGGSLRLSCAASGGTFSSYAMGWFRQAPGKEREFVAATTRGGGRTMYAVSTEGRFTCSRDNAKNTVYLLMNSLKPEDTAVYYCAAMTSYYSGTYYPDSSDFDIWGQGTQVTVSS
- P.E. binding ELISA OD (mouse IL-2Rβ (mouse) [1]): 0.049 OD450 nm

B21: FJ1427_P035MP03G01 (VHH)
VHH: B20 VHH with Q1E, S85R, L86V, M99R, D110A
- P.E. binding ELISA OD (mouse IL-2Rβ (mouse) [1]): 0.049 OD450 nm

B23: FJ1427_P035MP02D03 (VHH)
VHH: B20 VHH with S17P
- P.E. binding ELISA OD (mouse IL-2Rβ (mouse) [2]): 0.048 OD450 nm

B24: FJ1427_P035MP02A03 (VHH)
VHH: QVQLVESGGGLVQPGGSLRLSCAASGFTFSNYAMSWVRQAPGKGLEWVSSITGAGRGTYYAESVKGRFTISRDNDKNTLYLQMNSLKPEDTAVYYCAKYDSSTFYPPTPARGIADRGQGTRVTVSS
- P.E. binding ELISA OD (mouse IL-2Rβ (mouse) [2]): 0.048 OD450 nm

B25: FJ1427 P035MP02F12 (VHH)
VHH: QLQLVESGGGLVQTGTSLRLSCAASGHTSRINAMGWFRQFPGKEREFVAAISRNGGSTVYVDSVKGRFTISRDNAKSTVYLQMNSLKPEDTAVYYCTATDAVGWTTRWMTADFGFWGQGTQVTVSS
- P.E. binding ELISA OD (mouse IL-2Rβ (mouse) [1]): 0.048 OD450 nm

B28: FJ1427_P035MP03G02 (VHH)
VHH: EVQLVESGGGLVQPGGSLRLSCAISGGTLDSYGIGWVRQAPGKQREGVSCMSRSDDRTFYADSVKGRFTISKDNAKSTVYLQMTNLKPDDTAVYYCAAVDAYGCSLVQPTTYDFWGLGTQVTVSS
- P.E. binding ELISA OD (mouse IL-2Rβ (mouse) [1]): 0.049 OD450 nm

B29: FJ1427_P035MP03B02 (VHH)
VHH: EVQLVESGGGLVQVGDSLRLSCAASGRTVGSANMGWFRQAPGKEREFVAVITWSTGSTVYADSVKGRFTISRDNAKNTVYLDMSSLKPDDTAVYYCAADVYPYSGNLNIMDYWGKGTLVTVSS
- P.E. binding ELISA OD (mouse IL-2Rβ (mouse) [1]): 0.068 OD450 nm

B33: FJ1427_P035MP02F11 (VHH)
VHH: EVQLVESGGGLVQAGGSLRLSCAASGRDFSSYAMGWFRQAPGKEREFVVAITWTKRSTDFPDSVKGRFTISRDNAKNTVYLDMNSLKPEDTAVYYCASARGLPVTPLGDIIYWGEGTLVTVSS
- P.E. binding ELISA OD (mouse IL-2Rβ (mouse) [1]): 0.047 OD450 nm

B34: FJ1427_P035MP02G11 (VHH)
VHH: B33 VHH with E1Q, V2L
- P.E. binding ELISA OD (mouse IL-2Rβ (mouse) [1]): 0.049 OD450 nm

Second part, the binder after the results:

- P.E. binding ELISA OD (mouse IL-2Rβ (mouse) [1]): 0.048 OD450 nm
B1: FJ1427 P035MP02B12 (VHH)
VHH: QVQLVESGGGLVQAGGSLRLSCAASGRADSNAIMAWFRQAPGKEREFIVAVTYSGMPTYQDDSVQGRFTASRDNAKNTVYLQMNSLKPEDTAVYYCAARMYSASTYYGDYDYWGQGTQVTVSS

- P.E. binding ELISA OD (mouse IL-2Rβ (mouse) [1]): 0.049 OD450 nm
B2: FJ1427_P035MP02H11 (VHH)
VHH: EVQLVESGGGLVQAGGSLRLSCAASGRTFSTTEMGWFRQAPGKEREFVAAITWTGRGTMYAESVEGRFTISRENAKNMVYLQMNSLKPEDTAIYYCAAARRGRAAVRSEGGYDFWGQGTQVAVSS

- P.E. binding ELISA OD (mouse IL-2Rβ (mouse) [1]): 0.047 OD450 nm
B3: FJ1427_P035MP02C12 (VHH)
VHH: EVQLVESGGGSVQAGGSLRLSCAASGRTFSDYTMGWFRQAPGKEREFVVAITGTGHTTDMPDSVEGRFTISRDNAKNTIYLDMKNLKPGDTAVYYCASARGLPVTPLGDIIYWGEGTLVTVSS

- P.E. binding ELISA OD (mouse IL-2Rβ (mouse) [1]): 0.05 OD450 nm
B4: FJ1427_P035MP03E02 (VHH)
VHH: QVQLVESGGGLVQVGGSLSVSCAASGRSFDSITMAYFRQAPGNEREFIAGINFSGSRTAYGDSVKGRFTISRDNAKNTVFLQMNSLNPEDTAVYYCAASPRGFYGPGHALYDYWGQGTQVTVSS

- P.E. binding ELISA OD (mouse IL-2Rβ (mouse) [2]): 0.048 OD450 nm
B5: FJ1427 P035MP02D02 (VHH)
VHH: B4 VHH

- P.E. binding ELISA OD (mouse IL-2Rβ (mouse) [2]): 0.052 OD450 nm
B6: FJ1427 P035MP02F02 (VHH)
VHH: EVQLVESGGGLVQAGGSLRLACALSGDVFVRYTMAWFRQAPGKEREFVASVTDSGRTTDYVASVQGRFTVSRDNNKNTVYLQMNSLKPEDTAVYYCAANTDYFQIRSLDRNTWGQGTQVTVSS

- P.E. binding ELISA OD (mouse IL-2Rβ (mouse) [2]): 0.049 OD450 nm
B10: FJ1427 P035MP02E02 (VHH)
VHH: EVQLVESGGGLVQTGGSLRLSCAASGSQFINDVMGWYRQVPGKQRELVADMDDTGSTKYADSVKGRFTILRDSVKNTAYLQMSNLKPEDTGVYYCKAGLWIKGRHSDYWGQGTQVTVSS

- P.E. binding ELISA OD (mouse IL-2Rβ (mouse) [1]): 0.051 OD450 nm
B11: FJ1427_P035MP03H01 (VHH)
VHH: B13 VHH with L11S, P14T, A23V, A24V, V57A, G60A, F106S, I113T

- P.E. binding ELISA OD (mouse IL-2Rβ (mouse) [2]): 0.049 OD450 nm
B12: FJ1427_P035MP02G01 (VHH)
VHH: B9 VHH with Q5V, V74A, L101I

- P.E. binding ELISA OD (mouse IL-2Rβ (mouse) [2]): 0.048 OD450 nm
B14: FJ1427_P035MP02B02 (VHH)
VHH: EVQLVESGGTLVQTGGSLRLSCVVSGSHFISDVMGWYRQVPGKQRELVADMADGGSAKYGDSVKGRFTIVRDSVKNTVYLQMSSLNPEDTGVYYCKAGLWIKGRHSDYWGQGTQVTVTS

- P.E. binding ELISA OD (mouse IL-2Rβ (mouse) [2]): 0.051 OD450 nm
B17: FJ1427_P035MP02H01 (VHH)
VHH: B15 VHH with A14P, R19G, S30D, F54A, D59H, R98K, Q118P

- P.E. binding ELISA OD (mouse IL-2Rβ (mouse) [2]): 0.049 OD450 nm
B18: FJ1427_P035MP02A02 (VHH)
VHH: B15 VHH with A14P, S30D, S35T, F54A, D59H, M83V, P107T, A110V

- P.E. binding ELISA OD (mouse IL-2Rβ (mouse) [1]): 0.048 OD450 nm
B19: FJ1427 P035MP03D01 (VHH)
VHH: B15 VHH with A14P, R19G, S30D, F54A, D59H, R98K, Q118P

- P.E. binding ELISA OD (mouse IL-2Rβ (mouse) [1]): 0.052 OD450 nm
B22: FJ1427_P035MP03A02 (VHH)
VHH: B20 VHH with K76E, L82Q, V93I

- P.E. binding ELISA OD (mouse IL-2Rβ (mouse) [2]): 0.048 OD450 nm
B26: FJ1427_P035MP02C02 (VHH)
VHH: QVQLVESGGGLVQPGGSLRLSCAASGSRFVSDFMGWYRQVPGKQRELVADMADGGSARYGDSVKGRFTILRDNMNSTAFLQMSSLKPEDTGVYYCKAGLWIAGRHFDYWGQGTQVTVSS

- P.E. binding ELISA OD (mouse IL-2Rβ (mouse) [2]): 0.048 OD450 nm
B27: FJ1427_P035MP02B03 (VHH)
VHH: B26 VHH with P14T, N73S, M74G, F79Y

- P.E. binding ELISA OD (mouse IL-2Rβ (mouse) [1]): 0.048 OD450 nm
B30: FJ1427 P035MP03C02 (VHH)
VHH: B29 VHH with E1Q, D89E

- P.E. binding ELISA OD (mouse IL-2Rβ (mouse) [1]): 0.049 OD450 nm
B31: FJ1427_P035MP03F01 (VHH)
VHH: QVQLVESGGGLVQVGGSLRVSCAASGRTSGDRNMGWFRQAPGKEREFVGIITWSSGSTVYADSVKGRFTISRDNAKNTVYLDMSSLKPEDTAVYYCAADYYPYSGSWNIMDYWGKGTLVTVSS

- P.E. binding ELISA OD (mouse IL-2Rβ (mouse) [1]): 0.047 OD450 nm
B32: FJ1427 P035MP02A12 (VHH)
VHH: QVQLQESGGGLVQAGGSLRLSCAVSGRSFRNYVMGWFRQAPGREREIVAGITQFTSTTYYDDSVKGRFTISRDNAKNTVYLQMNSLKPEDTALYYCAADRSIKMTADWAYWGQGTQVTVSS
